According to publication PMC3268058 (2010):

Target: SRC SH3 domain (GST-SH3(SRC)) 83-139 (Gallus gallus, UniProt P00523)
Assay: fluorescence polarization competition

Row | Binder | Kd
1 | RAARPLPPLPP [AGT(PP3) fusion] | 7 µM
2 | VSLARRPLPPLPRL [AGT(PP2) fusion] | 0.55 µM
